Entries after “also recorded” stand apart in the source; their conditions may differ. Where a SMILES comes first, the peptide text is derived from it. Where no end group is shown, it is not given here. [ ]: non-standard residue; d: D form. pY = N[C@@H](Cc1ccc(OP(=O)(O)O)cc1)C(=O)O

Consider three molecules from PMC4397963, “Phospho-Tyrosine(s) vs. Phosphatidylinositol Binding in Shc Mediated Integrin Signaling” (American journal of molecular biology, 2015).

Test [1] concerns the target T1, full length Shc (1 – 473) (Homo sapiens, UniProt P29353).
T1 construct: The vector of pET28a-full length Shc (1 – 473), generously provided by Dr. Ladbury; His-tag (N); made in house; host or cells: E. coli BL21 (DE3), pET28a (vector a gift from Dr. Ladbury)
T1 sequence (P29353 1-473 isoform P29353-2): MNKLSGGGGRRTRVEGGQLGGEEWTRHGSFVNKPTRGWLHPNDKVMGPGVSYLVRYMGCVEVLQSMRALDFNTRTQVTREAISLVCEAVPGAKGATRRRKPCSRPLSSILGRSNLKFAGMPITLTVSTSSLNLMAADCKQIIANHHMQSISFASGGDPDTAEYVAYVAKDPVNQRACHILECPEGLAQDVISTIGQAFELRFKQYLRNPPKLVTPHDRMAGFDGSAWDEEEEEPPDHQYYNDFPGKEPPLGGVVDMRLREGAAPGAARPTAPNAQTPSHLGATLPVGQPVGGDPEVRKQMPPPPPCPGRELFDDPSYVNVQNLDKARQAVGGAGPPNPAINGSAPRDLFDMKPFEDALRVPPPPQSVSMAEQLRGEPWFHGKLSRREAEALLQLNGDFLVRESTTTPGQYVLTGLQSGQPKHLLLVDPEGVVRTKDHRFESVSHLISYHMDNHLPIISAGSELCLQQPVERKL
Description: ITC binding to full length Shc. Conditions: full-length Shc titrated by bi-β3, Ins(1,4,5)P3 at 3 to 1. On the procedure: The Shc PTB domain (17 – 207) containing the pET15b vector was transformed into a Rosetta (DE3) cell line to pursue optimal expression levels. SH2 domain (380 – 473) was cloned into NdeI and XhoI sites in pET21b vector and then transformed into a BL21 (DE3) cell line. The vector of pET28a-full length Shc (1 – 473), generously provided by Dr. Ladbury (University of Texas MD Anderson Cancer Center, TX), was expressed in a BL21 (DE3) cell line as well. Typically, 10 ml overnight culture was used to inoculate 1 liter LB broth. Cells were grown at 37°C until OD600 reached 0.6. At this point the culture was cooled to room temperature and then the overnight overexpression was induced by 1 mM isopropyl-β-D-thiogalactopyranoside. Harvested cells were kept at −20°C for future purification or resuspended in lysis buffer supplemented with protease inhibitors. Cells were further lysed by french press and the cell debris was removed by centrifugation at 18,000 rpm at 4°C. […] The overexpression of the target protein and the purified protein were confirmed by SDS-PAGE and the bands of the expected mass were observed. […]
Calorimetric measurements of a full length Shc, PTB domain, and SH2 domain to β3 phosphopeptides or PtdIns were performed on a low volume Nano ITC (TA Instruments). […] The concentration of protein samples was determined by UV measurements. […]

Test [2] concerns the target T2, Shc PTB domain (17 – 207) (Homo sapiens, UniProt P29353).
T2 construct: The Shc PTB domain (17 – 207) containing the pET15b vector was transformed into a Rosetta (DE3) cell line; His-tag (N); made in house; host or cells: E. coli Rosetta (DE3), pET15b
T2 sequence (P29353 17-207 isoform P29353-2): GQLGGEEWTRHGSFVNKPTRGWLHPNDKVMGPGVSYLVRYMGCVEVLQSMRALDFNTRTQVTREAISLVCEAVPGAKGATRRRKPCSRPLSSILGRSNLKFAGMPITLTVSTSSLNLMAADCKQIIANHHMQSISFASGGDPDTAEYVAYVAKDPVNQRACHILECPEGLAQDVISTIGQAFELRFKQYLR
Description: ITC binding to Shc PTB domain. The settings on record: PtdIns binding to PTB domain, ITC, 25°C. On the procedure:
The Shc PTB domain (17 – 207) containing the pET15b vector was transformed into a Rosetta (DE3) cell line to pursue optimal expression levels. SH2 domain (380 – 473) was cloned into NdeI and XhoI sites in pET21b vector and then transformed into a BL21 (DE3) cell line. The vector of pET28a-full length Shc (1 – 473), generously provided by Dr. Ladbury (University of Texas MD Anderson Cancer Center, TX), was expressed in a BL21 (DE3) cell line as well. Typically, 10 ml overnight culture was used to inoculate 1 liter LB broth. Cells were grown at 37°C until OD600 reached 0.6. At this point the culture was cooled to room temperature and then the overnight overexpression was induced by 1 mM isopropyl-β-D-thiogalactopyranoside. Harvested cells were kept at −20°C for future purification or resuspended in lysis buffer supplemented with protease inhibitors. Cells were further lysed by french press and the cell debris was removed by centrifugation at 18,000 rpm at 4°C. […] The overexpression of the target protein and the purified protein were confirmed by SDS-PAGE and the bands of the expected mass were observed. The determination of protein concentration by UV measurement was consistent with Bradford assay.
Calorimetric measurements of a full length Shc, PTB domain, and SH2 domain to β3 phosphopeptides or PtdIns were performed on a low volume Nano ITC (TA Instruments). All experiments were carried out in a buffer of 50 mM Tris, pH 7.5, 100 mM NaCl, 5 mM β-mercaptoethanol (unless described otherwise) at 12°C or 25°C with a stirring speed of 250 rpm to minimize the precipitation of the protein. 300 second time intervals were set between injections. The concentration of protein samples was determined by UV measurements. The titrants (β3 phosphopeptides or PtdIns) were prepared in the same buffer by the dilution of higher concentration stocks. The concentrations of the protein ranged from 30 μM to 150 μM. The concentration of protein was examined after each ITC experiment by UV to ensure the stability of proteins under the test condition. The analysis of the data was done with Nano Analyze Software (TA Instruments) suite using an “independent” model.

Test [3] concerns the target T3, Shc PTB domain (17 – 207) (UniProt P29353-2 17-207).
T3 construct: Shc adaptor protein (p52 isoform), PTB domain, residues 17-207, from a pET15b vector; numbers count on: the p52 isoform (full length 1-473); 15N-labelled (M9 medium with 15NH4Cl) for the NMR experiments; Monomeric on Superdex-75; also called apo PTB domain; source: E. coli Rosetta (DE3), purified (Ni-NTA, Superdex-75)
T3 sequence (looked up): T2 sequence (P29353 17-207 isoform P29353-2)
Description: ITC; Nano ITC; β3 phosphopeptide titrated into the Shc protein over-saturated by Ins(1,4,5)P3 at 3 to 1 lipid to protein ratio; 12°C. The settings on record: both partners purified. (In general: In ITC the heat of successive injections is recorded.)

Test [4] addresses T4, full length Shc (1 – 473) (UniProt P29353-2 1-473).
T4 construct: Shc adaptor protein, full length 1-473 (printed length 473 residues, the p52 isoform), from a pET28a vector provided by Dr. Ladbury; numbers count on: the p52 isoform; Monomeric on Superdex-75; also called Shc full length; p52 Shc; source: E. coli BL21 (DE3), purified (Ni-NTA, Superdex-75)
T4 sequence (looked up): T1 sequence (P29353 1-473 isoform P29353-2)
The test is described as above. Conditions: both partners purified.

Test [5] deals with T3, Shc PTB domain (17 – 207). The experiment in a line: ITC; Nano ITC; β3 phosphopeptide titrated into the Shc protein (30-150 μM); 25°C; 50 mM Tris, pH 7.5, 100 mM NaCl, 5 mM β-mercaptoethanol; independent model. The settings on record: both partners purified.
In test [6] the target is T4, full length Shc (1 – 473). The description is as above. The settings on record: both partners purified.
In test [7] the target is T3, Shc PTB domain (17 – 207). The experiment in a line: ITC; Nano ITC; β3 phosphopeptide titrated into the Shc protein (30-150 μM); 12°C; 50 mM Tris, pH 7.5, 100 mM NaCl, 5 mM β-mercaptoethanol; independent model. Conditions: both partners purified.
For test [8], the target named is T4, full length Shc (1 – 473). Described as above. Conditions: both partners purified.
Test [9] addresses T3, Shc PTB domain (17 – 207). The experiment in a line: ITC; Nano ITC; β3 phosphopeptide titrated into the Shc protein (30-150 μM); 25°C; 50 mM Tris, pH 7.5, 100 mM NaCl, 5 mM β-mercaptoethanol; independent model. The settings on record: both partners purified. The source holds these as a separate data set.
For test [10], the target named is T4, full length Shc (1 – 473). The test is described as above. The settings on record: both partners purified. The source holds these as a separate data set.

As for `CC[C@H](C)[C@H](NC(=O)[C@H](CC(N)=O)NC(=O)[C@@H](NC(=O)[C@H](Cc1ccccc1)NC(=O)[C@@H](NC(=O)[C@H](CO)NC(=O)[C@@H](NC(=O)[C@H](C)NC(=O)[C@H](CCC(=O)O)NC(=O)[C@H](CCCCN)NC(=O)[C@H](Cc1ccc(OP(=O)(O)O)cc1)NC(=O)[C@H](CC(C)C)NC(=O)[C@@H]1CCCN1C(=O)[C@H](CC(N)=O)NC(=O)[C@H](CC(N)=O)NC(=O)[C@H](C)NC(=O)[C@@H](NC(=O)[C@H](CC(=O)O)NC(=O)[C@H](Cc1c[nH]c2ccccc12)NC(=O)[C@H](CCCCN)NC(=O)[C@H](C)NC(=O)[C@@H](N)CCCNC(=N)N)[C@@H](C)O)[C@@H](C)O)[C@@H](C)O)[C@@H](C)O)C(=O)N[C@H](C(=O)N[C@@H](Cc1ccc(OP(=O)(O)O)cc1)C(=O)N[C@@H](CCCNC(=N)N)C(=O)NCC(=O)N[C@H](C(=O)O)[C@@H](C)O)[C@@H](C)O` [bi-β3] (H-RAKWDTANNPL[pY]KEATSTFTNIT[pY]RGT-OH), in test [1], the “change in Kd caused by Ins(1,4,5)P3” value is reported as “slight reduction of Kd value”.

Consider “Phosphatidylinositol-5-phosphate [PtdIns(5)P1]”, for which the Kd entry in test [2] (50 mM Tris pH 7.5, 100 mM NaCl, 5 mM β-mercaptoethanol, "independent" model, dihexanoyl- or dioctonoyl- PtdIns) is “not able to detect the binding; also recorded: does not show to bind; also recorded: No binding”. In test [2] (pH 7.5), the ΔG entry is listed as “No binding”, the ΔH entry is reported as “No binding” and the “−TΔS” value was “No binding”.

B1: c-β3: β3 integrin derived peptide phosphorylated at C-terminal tyrosine (Y759) (peptide)
peptide: ATSTFTNIT[pY]RGT
notes: integrin β3 cytoplasmic tail, residues 750-762, Y759 phosphorylated; also called mono-phosphorylated peptide; source: synthetic peptide (NEO-Peptide)
As for B1, the dissociation constant Kd was determined as 1120 nM in [3]; 870 nM in test [4]; 340 nM in test [5]; 1050 nM in [7]; 820 nM in test [8]; 350 nM in test [9]. In [10], the affinity, expressed as Kd, was 1330 nM. For the same molecule, the dH in test [3] is -5.65 kcal/mol; in test [4] it was -5.05 kcal/mol; in test [7] it was -5.78 kcal/mol; in [8], -5.03 kcal/mol; in test [9] it was -6.07 kcal/mol; in test [10], -1.77 kcal/mol. Moreover, the “stoichiometry N” value in [5] and in test [6] was 1 ± 0.15 in each case.

For orientation: Kd means the concentration at which binding is half-saturated. Usually stoichiometry N stands for a count of units in the complex or per binding partner.
